How the values were obtained:
[1] = target: Tth xynB3 β-xylosidase from Thermotoga thermarum DSM 5069 (Thermotoga thermarum DSM 5069); assay: SEC; Superdex 200 10/30 GL column on an ÄKTA FPLC system; MW calculated from the calibration curve of the gel filtration column; oligomerization state of the purified native protein
purified protein [2] = substrate: O=[N+]([O-])c1ccc(O[C@@H]2O[C@@H](CO)[C@H](O)[C@H]2O)cc1; assay: purified protein; type: biochemical, Pseudothermotoga thermarum; conditions: 50 mM imidazole-potassium buffer pH 6.0, 85°C (standard conditions; text says optimal conditions)
purified protein [3] = substrate: O=[N+]([O-])c1ccc(O[C@@H]2OC[C@@H](O)[C@H](O)[C@H]2O)cc1; assay: purified protein; type: biochemical, Pseudothermotoga thermarum; conditions: 50 mM imidazole-potassium buffer pH 6.0, 85°C (standard conditions; text says optimal conditions)

| stoichiometry N [1] | Molecule | Km (purified protein [2]) [µM] | Km (purified protein [3]) [µM] |
| --- | --- | --- | --- |
| 5 | Tth xynB3 β-xylosidase from Thermotoga thermarum DSM 5069 (enzyme) | – | – |
| – | Tth xynB3 β-xylosidase (Pseudothermotoga thermarum DSM 5069) (protein, full length, 774 residues (2,322 bp), pET-20b NdeI/XhoI in E. coli BL21 (DE3), Ni-NTA purified after heat treatment; theoretical monomer 85,129 Da; 5-mer in solution (422,474 Da); primers […]; (N-terminal MDLYKNPNV)) MDLYKNPNVPAKVRAKDLLSKMTLEEKIAQLGSVWSYELLTEDGKFSVEKAKEILKHGIGQITRPGGATNFEPPEVAKLVNEIQKFLVENTRLGIPAIMHEECLAGYMGLGATIFPQPIGMASTWDPELVEKITSAIREDLRKLGITQGLAPVLDVARDPRWGRTEETFGESPYLVAKMGVAYVKGLQGSDITKGVVATGKHFAGYSASEGGKNWAPTNIPPRELREVFLYPFEAAVKEAGLLSIMNSYSEIDGIPCASNRELLTDILRRTWGFEGIVVSDYFAVDMLAAYHRMAKNKAEAAKYALEAGIDIELPKTDCYLHLKSLVENGIISEKLLDEAVLRVLTLKFLLGLFENPYAEGGSLNDHNDIALEASRKSIVLLKNNGILPLKNDVKIALVGPTANDVRNLLGDYSYLVHIKTLLENVNATTFNAPKFNLKKVEELVEAHLKKIPSILAEFAKRAKEIYYAKGCDITDPSREGFAEALEAAKKADVVVAVVGDRSGLTIECTSGESRDMANLKLPGVQEEFILELTKVGKPIVVVLVTGRPYSLKAFVNKVNAIVQLWLPGETGAQALAEVIFGQVNPSGKLPISFPASAGQIPVFHYVKPSGGRSCWHGNYVDEDVKPLFPFGHGLSYTTFSYTNLRIEQQEIPIAGSVKLKVDVQNTGEIYGEEVVQLYISREHASVTRPVKELKGFARVKLQPKETKTVVFEIHTDVLAYYDRDMKLVVEPGEYKVLIGSSAEDIRCQGNFKVVGEKRLVQDNRVFFTNTKIE | 210 | 270 |

Reference: PMC3621209, “Biochemical properties of a novel thermostable and highly xylose-tolerant β-xylosidase/α-arabinosidase from Thermotoga thermarum” (Biotechnology for Biofuels, 2013)
